Reference: patent US20040023887A1 (published 2004)
Positions of bridges follow the written chain, without caps; N, C: chain ends. Chains are numbered I, II in the order given. No end group written: not given here.

B1: S423 (peptide)
peptide 1: ESFYDWFERQLGK
peptide 2: ACAWPTYWNCG
modifications: not fully specified (bridges); cysteine pairing not given here; also: C-terminus of chain 2 linked to Lys13 of chain 1, bond at chain A 13 to a chain's C-terminus
B2: S432 (peptide)
peptide 1: ESFYDWFERQLGGGGK
peptide 2: CEVYGRGCPS
modifications: not fully specified (bridges); cysteine pairing not given here; also: C-terminus of chain 2 linked to Lys16 of chain 1, bond at chain A 16 to a chain's C-terminus
B3: S433 (peptide)
peptide 1: ESFYDWFERQLGGGGK
peptide 2: WLDQEWAWVQ
modifications: also: C-terminus of chain 2 linked to Lys16 of chain 1, bond at chain A 16 to a chain's C-terminus
B4: S437 (peptide)
peptide 1: ESFYDWFERQLGGGGK
peptide 2: LDQEWAWVQCEVYGRGCPS
modifications: not fully specified (bridges); cysteine pairing not given here; also: C-terminus of chain 2 linked to Lys16 of chain 1, bond at chain A 16 to a chain's C-terminus
B5: S438 (peptide)
peptide 1: ESFYDWFERQLGGGGK
peptide 2: DQEWAWVQCEVYGRGCPS
modifications: not fully specified (bridges); cysteine pairing not given here; also: C-terminus of chain 2 linked to Lys16 of chain 1, bond at chain A 16 to a chain's C-terminus
B6: S439 (peptide)
peptide 1: ESFYDWFERQLGGGGK
peptide 2: QEWAWVQCEVYGRGCPS
modifications: not fully specified (bridges); cysteine pairing not given here; also: C-terminus of chain 2 linked to Lys16 of chain 1, bond at chain A 16 to a chain's C-terminus
B7: S440 (peptide)
peptide 1: ESFYDWFERQLGGGGK
peptide 2: EWAWVQCEVYGRGCPS
modifications: not fully specified (bridges); cysteine pairing not given here; also: C-terminus of chain 2 linked to Lys16 of chain 1, bond at chain A 16 to a chain's C-terminus
B8: S441 (peptide)
peptide 1: ESFYDWFERQLGGGGK
peptide 2: WAWVQCEVYGRGCPS
modifications: not fully specified (bridges); cysteine pairing not given here; also: C-terminus of chain 2 linked to Lys16 of chain 1, bond at chain A 16 to a chain's C-terminus
B9: S442 (peptide)
peptide 1: ESFYDWFERQLGGGGK
peptide 2: AWVQCEVYGRGCPS
modifications: disulfide II:5-II:12 (inferred); also: bond at chain A 16 to a chain's C-terminus
B10: S443 (peptide)
peptide 1: ESFYDWFERQLGGGGK
peptide 2: WVQCEVYGRGCPS
modifications: not fully specified (bridges); cysteine pairing not given here; also: C-terminus of chain 2 linked to Lys16 of chain 1, bond at chain A 16 to a chain's C-terminus
B11: S444 (peptide)
peptide 1: ESFYDWFERQLGGGGK
peptide 2: VQCEVYGRGCPS
modifications: not fully specified (bridges); cysteine pairing not given here; also: C-C branched: chain 2 C-terminus bonded to Lys16 side chain
B12: B6Hα-3-F7-IR (peptide)
peptide: SRVAATKEKRPSDDPFYHKLSELLQGS
notes: library tags and phage coat protein not included
B13: B6Hα-2-D8-IR (peptide)
peptide: SSETAKMVTGTRDDPFYHKLSELVQGS
notes: as for B12
B14: B6Hα-1-B3-IR (peptide)
peptide: GCITAENGAGDPFYHKLSELGGCS
notes: as for B12
B15: B6Hα-3-E5-IR (peptide)
peptide: RCGDEEGWQENRRDDPFYHKLSELFGGC
notes: as for B12
B16: 20E2A-4-G11-IGFR (peptide)
peptide: MNVFVSFYDAIDQLVCQRIGC
notes: as for B12
B17: 20E2Bβ-3-C7-IR (peptide)
peptide: QSGSGDFYDWLSRLIRGNGDG
notes: as for B12
B18: B6Hα-3-E6-IR (peptide)
peptide: CGAKMTGTPNDPFYHKLSELLQRG
notes: as for B12
B19: 20E2A-3-A3-IGFR (peptide)
peptide: GHYFGSFYDAIDQLVAGMLPG
notes: as for B12
B20: B6Hα-3-F1-IR (peptide)
peptide: CSMAAVAEAGDDDDPFYHKLSELCQGS
notes: as for B12
B21: 20E2A-3-A4-IGFR (peptide)
peptide: AGSVTSFYDAMEQLVATGTSA
notes: as for B12
B22: R20β-4-E8-IR (peptide)
peptide: VRGFQGGTVWPGYEWLRNAA
notes: tags and coat protein not included; Formula 10 (Group 6) clone
B23: 40F-4-D1-IGFR (peptide)
peptide: LSCLAYSRHGIWRPSTDLGLGRSVGEGSVSTRWRGYDWFE
notes: as for B22
B24: 40F-4-B1-IGFR (peptide)
peptide: GLDHSDAVGVHLGFAWPAQARGRWEAGGLEDTWAGYDWL
notes: as for B22

What follows are binders tested against T1, human insulin receptor (HIR) (human, UniProt P06213-2 28-1370, limits assumed) (assay: 125I-insulin competition on purified HIR).
T1 construct: Also used for the WGA-purified recombinant human insulin receptor of the kinase assay
B1 was tested, and the Kd was 62 nM.
In the case of B2, the Kd is reported as 180 nM.
Work on B3 yielded a Kd of 110 nM.
In the case of B4, the Kd is reported as 0.69 nM.
For B5, the Kd was 30 nM.
Binder B6 has a Kd of 46 nM.
With B7 the Kd was 99 nM.
Work on B8 yielded a Kd of 120 nM.
B9 gave a Kd of 160 nM.
For B10, the Kd was 170 nM.
Work on B11 yielded a Kd of 190 nM.
With LDQEWAVQCEVYGRGCPSESFYDWFERQLG [S484] the Kd was 87 nM.

What follows are binders tested against T2, Soluble IGF-1R (R&D Systems, Cat. # 391-GR/CF) (human, UniProt P08069 31-935) (assay: phage ELISA, receptor coated on plate; A405 over non-fat milk).
T2 construct: extracellular domain; the precursor is cleaved into alpha and beta subunits; also called sIGF-1R
B12 was tested, and the “ratio over background (IGF-1R)” value was 3.1 fold over background.
B13 was tested, and the “ratio over background (IGF-1R)” value was 3 fold over background.
In the case of B14, the “ratio over background (IGF-1R)” value is reported as 3.2 fold over background.
B15 was tested, and the “ratio over background (IGF-1R)” value was 2.9 fold over background.
B16 was tested, and the “ratio over background (IGF-1R)” value was 3.3 fold over background.
In the case of B17, the “ratio over background (IGF-1R)” value is reported as 3.1 fold over background.
B18 was tested, and the “ratio over background (IGF-1R)” value was 2.3 fold over background.
In the case of B19, the “ratio over background (IGF-1R)” value is reported as 3 fold over background.
For B20, the “ratio over background (IGF-1R)” value was 2.4 fold over background.
With B21 the “ratio over background (IGF-1R)” value was 2.5 fold over background.
In the case of B22, the “ratio over background (IGF-1R)” value is reported as 34.9 fold over background.
B23 was tested, and the “ratio over background (IGF-1R)” value was 4.6 fold over background.
B24 was tested, and the “ratio over background (IGF-1R)” value was 3 fold over background.

Each binder was assayed against T3, Insulin receptor prepared according to Bass et al., 1996 (soluble IR-immunoglobulin chimera) (human, UniProt P06213 28-956) in the same assay as above.
T3 construct: extracellular domain; also called sIR-Fc; soluble IR (Bass construct); not shown: immunoglobulin constant domains replacing the transmembrane and intracellular domains
In the case of B12, the “ratio over background (IR)” value is reported as 1 fold over background.
B13 was tested, and the “ratio over background (IR)” value was 1 fold over background.
For B14, the “ratio over background (IR)” value was 1.1 fold over background.
B15 was tested, and the “ratio over background (IR)” value was 1 fold over background.
For B16, the “ratio over background (IR)” value was 1.3 fold over background.
In the case of B17, the “ratio over background (IR)” value is reported as 1.5 fold over background.
B18 was tested, and the “ratio over background (IR)” value was 1.2 fold over background.
With B19 the “ratio over background (IR)” value was 1.5 fold over background.
B20 was tested, and the “ratio over background (IR)” value was 1.3 fold over background.
B22 was tested, and the “ratio over background (IR)” value was 3.6 fold over background.
With B23 the “ratio over background (IR)” value was 0.3 fold over background.
For B24, the “ratio over background (IR)” value was 0.2 fold over background.

Each binder was assayed against T4, soluble human insulin receptor-immunoglobulin heavy chain chimera (human, UniProt P06213 28-956, limits assumed) (assay: phage ELISA).
T4 construct: extracellular domain; also called sIR-Fc; IR (prepared according to Bass et al., 1996); not shown: immunoglobulin heavy chain constant domains (Bass et al., 1996)
With GAPVDQLHEDFYDWFVRQVSQAATG (on phage) [H2CA-2-B2-IGFR] the ratio over background was 1 ratio.

The binders below were run against T5, soluble IGF-1R (recombinant human IGF-1R extracellular domain, R&D Systems Cat. # 391-GR/CF) (human, UniProt P08069 31-935) (assay: phage ELISA).
T5 construct: extracellular domain; Bought protein; coated on plates (phage ELISA, TRF) or Eu-labelled (TR-FRET); also called sIGF-1R; rhIGF-1R
GAPVDQLHEDFYDWFVRQVSQAATG (on phage) [H2CA-2-B2-IGFR] gave a ratio over background of 3.4 ratio.
